In the supplement of paper PMC10126150:
± gives the standard deviation of the averaged measurements.

Tested on: ATP
Test: switch fluorescence ratio, 500 uM ATP over buffer (Cy3 cluster intensity, sum of 5 cycles each) (fold (ratio)); higher = stronger signal-on switching upon ATP binding; sequences stand for … in TCGTCGGCAGCGTCAGATGTGTATAAGAGACAGTTTTTTTTTTTTTTTTTTTTTTTTT…TC
Conditions: aptamer strand: ATP DNA aptamer (quencher-CACCTGGGGGAGTATTGCGGAGGAAGG + anchor), 100 nM annealed; ATP concentration: 500 uM
Summary of the method: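 Cy3-labelled switching-strand clusters on a modified Illumina MiSeq flow-cell were annealed to 100 nM quencher-labelled ATP aptamer and imaged first in selection buffer, then after 15 min with 500 uM ATP at 22 °C. NaOH stripping and re-annealing separated each of five buffer/ATP cycles, and clusters outside 100-1000 RFU were excluded. The fluorescence ratio sums target-cycle Cy3 intensity over buffer-cycle Cy3 intensity per cluster and averages it per switch-domain sequence.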
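Also: ATP exposure 15 min at 22 °C before imaging.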

Sequence	switch fluorescence ratio
GAAATTTTGT	0.994 ± 0.012
GAACAACATG	1.03 ± 0.051
GAACACAAAA	1.05 ± 0.032
GAACAGGGGA	1.53 ± 0.68
GAACATTTCG	1 ± 0.021
GAACCGTGTT	0.967 ± 0.036
GAACCTGTGT	0.993 ± 0.052
GAACGCGTCC	1.1 ± 0.015
GAACGGCGGA	0.9811 ± 0.002
GAACGGCTCT	1.012 ± 0.0011
GAACGTTTGC	1.11 ± 0.017
GAACTAAATG	1 ± 0.055
GAACTAGGCA	1 ± 0.012
GAACTGAGTC	1.01 ± 0.046
GAACTTGCCA	1.06 ± 0.073
GAACTTGCCT	1 ± 0.018
GAACTTGGG	1.01 ± 0.045
GAACTTGTCT	1.02 ± 0.036
GAACTTTCTG	1.006 ± 0.0063
GAAGAACTGG	0.991 ± 0.054
GAAGAGAGGC	0.96 ± 0.024
GAAGATGGTG	0.963 ± 0.037
GAAGCACCGG	1.08 ± 0.026
GAAGCAGATG	1.16 ± 0.033
GAAGCCATAT	1.48 ± 0.068

Sequence	switch fluorescence ratio
GAAGCCGTTT	1.01 ± 0.039
GAAGCGGGTG	1.1 ± 0.1
GAAGCGTGTC	1.02 ± 0.017
GAAGCTGTAT	1.1 ± 0.035
GAAGGAACGT	0.981 ± 0.043
GAAGGACAGC	1.05 ± 0.034
GAAGGAGCAA	2.54 ± 1.2
GAAGGAGGGA	0.987 ± 0.018
GAAGGAGGGT	0.9731 ± 0.0064
GAAGGCAGCG	1.03 ± 0.017
GAAGGCGGTT	1.029 ± 0.0037
GAAGGGAGGA	1.03 ± 0.077
GAAGGGATTA	1.01 ± 0.04
GAAGGGCCTG	1.05 ± 0.056
GAAGGGGATA	1.01 ± 0.036
GAAGGGGCAG	0.97 ± 0.014
GAAGGGGCTG	1.01 ± 0.14
GAAGGGGTAC	1.16 ± 0.15
GAAGGGGTCC	1 ± 0.042
GAAGGGTGGG	1 ± 0.022
GAAGGTCGGC	0.994 ± 0.036
GAAGGTTAAC	1.03 ± 0.1
GAAGGTTATT	0.9939 ± 0.0047
GAAGTAAGTC	1.104 ± 0.0051
GAAGTAGGTC	1.02 ± 0.041

Sequence	switch fluorescence ratio
GAAGTATCGG	0.979 ± 0.024
GAAGTCTGTG	1 ± 0.047
GAAGTGAGGG	0.995 ± 0.017
GAAGTGATAT	1.206 ± 0.0013
GAAGTGCTTT	0.995 ± 0.041
GAAGTGTGGG	0.962 ± 0.03
GAAGTGTGTG	1 ± 0.021
GAAGTTACGG	1.11 ± 0.015
GAAGTTCCCA	0.979 ± 0.011
GAAGTTCGTG	1.01 ± 0.055
GAAGTTGGTG	0.987 ± 0.026
GAAGTTTCTA	0.999 ± 0.0069
GAAGTTTTTT	1.002 ± 0.0036
GAATAAGCAA	1.56 ± 0.025
GAATAATGGG	1.01 ± 0.033
GAATAATTGG	0.996 ± 0.015
GAATAGTTTT	1.01 ± 0.02
GAATATGAGA	0.9629 ± 0.0051
GAATATTACC	1.06 ± 0.014
GAATCAAGCG	0.986 ± 0.059
GAATCAGCGG	0.989 ± 0.018
GAATCAGGGG	1.11 ± 0.012
GAATCAGTGG	0.993 ± 0.05
GAATCCGGGA	1.05 ± 0.087
GAATCGTTTC	0.996 ± 0.053

Sequence	switch fluorescence ratio
GAATGGCACG	1.003 ± 0.008
GAATGGCGG	0.998 ± 0.041
GAATGGGACA	1.13 ± 0.26
GAATGGGGA	0.986 ± 0.021
GAATGGGTCC	1.01 ± 0.029
GAATGGTTGT	1.02 ± 0.023
GAATGTAGGT	0.993 ± 0.037
GAATGTGACG	1.02 ± 0.013
GAATGTGATA	0.984 ± 0.018
GAATGTTATT	1.001 ± 0.0065
GAATGTTTGA	0.984 ± 0.044
GAATGTTTGG	0.991 ± 0.011
GAATTAAAGT	0.9823 ± 0.0041
GAATTAGGTA	0.962 ± 0.01
GAATTATCAT	0.968 ± 0.015
GAATTGAAAA	1.02 ± 0.026
GAATTGCGGG	1.02 ± 0.087
GAATTTAAAA	0.9747 ± 0.0071
GAATTTAGCG	1.01 ± 0.015
GAATTTGCGC	1.03 ± 0.084
GAATTTTATG	0.9549 ± 0.0062
GAATTTTGCG	0.999 ± 0.021
GAATTTTTTG	0.988 ± 0.012
GACAACATTT	0.9967 ± 0.004
GACAATAAGT	1.04 ± 0.012
